# Results reported in the DeepSol protein solubility set.
# Assay: soluble on expression in E. coli; label from the status in PepcDB or PDB records
row,Sequence,soluble on expression in E. coli
1,MGSDKIHHHHHHLYINKRPIFLVHGLWNNPKLFEKLIKKINEDDYELYRPHLPHKYGKTSLKRLALDLDSKIEELVGPEIEIDIVGFSMGGLISRFWLQNHDGFLRTKRFFSIGTPHFGTYTAQMIPSFLMPGIAEMKRGSRLLSLLNNDLTSLEKVECTSFFTKWDLMSFPGWQAKLSIGESYHLPVLTHKELITNSSSLDILVKKIFKNS,not soluble
2,MGSDKIHHHHHHMAAELKTITVLGAGGKMGMRISANFQKSDYQVFYCENSPRAQEQVVAAGRELSIAEQVIPESDVVILAVPDIALKAVSGIVVPQMKSNAVLLTLDPAAAYANLIAKRDDIDYAVAHPCHPSVFLDRFTPEEHADAFGGVAAPQHVAASYETGSDEQKATLARVVKVMYGPVIDVHWVTVKQLAYLEPTLVETVACMVGTLMKEALDETINTIGVPEAAAKAMLYGHIQIALAVAFRSTNPFSDACMIAIEYGKENIIKPDWKKIFDEKELDLVIAKMLKIDAIER,not soluble
3,MGSDKIHHHHHHMAEIDFIGRYHNATKRDYVQRVVEYDKAECAATAKQWGFDYWDGDRRHGFGGMRYDGRWLPLAEDLVRHYGLKAGDKVLDIGCGKAFLLYEMTRACPGLTVAGLDISEYGINNAKEEVRPFLTLGNATRLPWPDRHFDLVISINTFHNLQIHELDQAVREMQRVSTGRGYICVESYRDESEKANLLYWQLTCESFHRPEGWRWVYDQAGYTGDHGFIYFQ,not soluble
4,MGSDKIHHHHHHMAEINYQLIDFDNRGDLGLKNEPFELFGRMKIDRLNNNWSYEVEIFTHKRTMAFPDERYHLQEINQNGFALGAYDDSNCVGLAIYQKHWNKYLYLKDLKVNRDHRKLGIGNQLIKEGLRRAVQLGYKGVYAVCQDNNLAACQFYLKIGFQIGGFNDFDYNYTTQSGKSDIYFYLDKNSAR,not soluble
5,MGSDKIHHHHHHMAEQMRRVARLFGDWPETIIWTCLEGTMGDIYVDDSQSPQSALALYGRQSFFGFLAGQPHRDLLKICEGKNIILVPQNQAWSDLIEEVYGDGVRFFTRYATKKDTEFDLGHLQKLVDDLPESFDMKLIDRNLYETCLVEEWSRDLVGNYIDVEQFLDLGLGCVILHKGQVVSGASSYASYSAGIEIEVDTREDYRGLGLAKACAAQLILACLDRGLYPSWDAHTLTSLKLAEKLGYELDKAYQAYEWR,not soluble
6,MGSDKIHHHHHHMAESIRPLTKNDRQQFVTVMTKVFAKDPLFLYIFGDLYNDHRAQRRARTFMGFIFDKSMERQAEAVWGLFDKDTLLGTYVVESCPAETNHSFAELYRLMILIFRLSLQLPPKMTWQLNRYMRVTRAHAPSIPHHYLTIIGVRKEAQGAGRGRNLLEHIFGTIGSGELSLDTEKKENVTLYKKFGFVLTDVVKCGPINVYCMRKTIRPRQKN,not soluble
7,MGSDKIHHHHHHMAEVFHERLKSPIPTRELARRSRELQAVMKKENIDCILAQNITQYMGGCNRWLTDTTAENHYPQSSFLTKDGDIGYIACSGPPLDLYPPSHLLRIGKPWAAAPYFSVFNFTWDWEGRLFVKWVQENNVQKVGIAGMEMIMWNYYNYIAEKLPGVEIVDASSLFDEIRAVKSEDEIKFLEKSAALQDKVMGYLPALIQPGVREYEVRAKIMQLVTDHGGEEMIVIMGSAPRGEKFSLLPSFFQNRELQTGDELYVKLQCSGPGGLFTTVGRMFSIGCEPSGALEQGWREAAAAQEKLAGLLQVGADPQVIFGQYNAYLESKGYNQETGLFVYGQGYDHIERPSIQPGETMKLAKDMCLAANTSLISAERTVYCADSFILKPSGPQKLHRTPLTIFRT,not soluble
8,MGSDKIHHHHHHMAFKQRREYLFLYTVKDANPNGDPLNENHPRYDGDTAQAMASDVRVKRTTRDEWVRSGEIVFVDGEPKSLKTRFEELKKITGKSDAREIMKQCLDVRLFGVTFALGKEAFAWTGPVQFKWGRSLHSASFEFVQGTAAFATERGGADNRQRSFRNEYLVPFALMGVYAIANQYASQYTDAADEDLQRMLDGLWQGTDNLITRSKNEHKSRLLIEITYKEDFNGKIGALDDKVTLLDREGKVMDREKQKALRSLQEVSLDIGALLKSMELKQEQIAGIRVITDGEINIIQEEQLKGISSIEVR,not soluble
9,MGSDKIHHHHHHMAFQNIQRFQNQDLIRVGNDDNYLLLAPHYGGRLVRWVRHGEEILYWPEAADWSRPAKIRGGNPLLFPFIGRHFADGEAGRWRDANGTTHTLPQHGFARDLPFTVVAADDDKIVMALESSDSTRAGYPYAFRFEASYVMLEDGVEVALRSENTGSDRLPYYAGHHFYFSLPAAHRPDTRLLLPEAVRLRQEPDGRLTHAIQGEPAYALDDDRLQDTFHALRGGGSVTLAMPGRTLAIDLDVPGCVAWHAVTTWTESKDADFYCVEPWLGLPDAIHHGHGLRWLEPGEQETAVCRVRVVA,not soluble
10,MGSDKIHHHHHHMAGAFDAGFWLPVLERLPDFRGDCIDMGFYGQPKRPKVPRPLILAHSMGLAWALAHIPRPWAGVFAVNAFPRFTRSPTFVEGVPPRLIERMLARFDETPAQVTADFLTRCGLDNPDTSAIDAAPLKDELAWLARCDERTALRMLPCPVLALAGTSDPIVPQGMSTASFAPDTLTLVDGAGHLLPLTHPDWVAAQIRLFAARLEA,not soluble
11,MGSDKIHHHHHHMAGGVSLKYILEQLAEERLGFLVNGHAMRQESQVGDLKVMERKKKLLEKRKVDIIKAKAKAVINHVRVEDDGTTCLSYTIHYEYVCKEQDDSLYIEEHIEERMAFLYDHILISDQEIAKKPAGFHEGTSIIDYSEAEEEREAFGRAFQYDRLGAVQYAEKFWNKRNPAYKNFSDNCTNFISQCLHAGGAPMRGHPNRGSGWWMKQSSWSYSWTVAHSMKMYLSNSKAGLRAVRVKSAEELMPGDVICYDFEGDGRFNHTTIVVAKDKGNMPLVNAQTYDSRMRYWSYEDSTAYTPSIRYAFFHIVDDTTKE,not soluble
12,MGSDKIHHHHHHMAHIFVYGTLKRGQPNHKVMLDHSHGLAAFRGRGCTVESFPLVIAGEHNIPWLLYLPGKGHCVTGEIYEVDEQMLRFLDDFEDCPSMYQRTALQVQVLEWEGDGDPGDSVQCFVYTTATYAPEWLFLPYHESYDSEGPHGLRYNPRENR,soluble
13,MGSDKIHHHHHHMAIGTLEATTLIRGRAMTTVLPSPELIASFVDIVGPGNALTAPADTAPYLVESRGLYRGTTPLVLRPGSVEEVSLVMRLASQTRTAVVPQGGNTGHVAGQIPREGKADVVLSLERLNRIRDIDPVGNVIVADAGCILADIQKAADDVDRLFPLSLGSEGSARIGGNLSTNAGGTAVLAYGNMRQLCLGLEVVLPTGEIWDGLRRLRKDNTGYDLRDLFIGAEGTLGVITGAVLKLFPKPRGHQVAFAGLRSVEDALTLFDRATSVCGPALTGFELMPRLGIEFTTRHIAGVRDPMETTHPWYALIDISTSDTAESAERMVQDLLEAVIADGLVENAVIAQNEAQRRALWHMRESMSPAQKPEGGSIKHDVSVPVSSIPAFMTEADALVSKAIPGARICAFGHMGDGNIHYNISQPVGADKQSFLDRWREINAIVHAVVLKHDGSISAEHGIGQLKRDELAAIRSPIEIELMRRIKHAFDPAGIMNPDKVLREDRGE,not soluble
14,MGSDKIHHHHHHMAKKKVIFECMACGYQSPKWMGKCPNCGAWNQMEEIVEKAANPKHGVKTKELAGKVQKLNSIKHETTPRVLTDSAEFNRVLGGGIVSGSLVLIGGDPGIGKSTLLLQICASLSQKKKVLYITGEESLSQTKLRAERLDEDSSELQVLAETDLEVIYQTVKEEQPDLLVVDSIQTIYHPEISSAPGSVSQVRESTQSLMNIAKQMNIATFIVGHVTKEGQIAGPRLLEHMVDTVLYFEGDEHHAYRILRAVKNRFGSTNEMGIFEMKQSGLKGVNNPSEMFLEERSTNVPGSTIVATMEGTRPLLIEVQALVTPTTFNNPRRMATGIDHNRLSLLMAVLEKKENYLLQQQDAYIKVAGGVKLTEPAVDLSVIVATASSFKDKAVDGLDCYIGEVGLTGEVRRVSRIEQRVQEAAKLGFKRVIIPKNNIGGWTYPEGIQVIGVTTVHEALSFALHS,not soluble
15,MGSDKIHHHHHHMAKQQFNKLIWLVDTIFRNAPVTFAEINRRWRAGDDNRSDIPLRTFHNHRQAIEEIFDINIECDKRNNTYYIADAEGMLGDKLKMWLLNSFSLNNVLQENVDMKNRIVFEEVPSGVQFMDLVIDAMRSGRVLAMEYQAYNWEHSKDVLLEPYFVKLFRHRWYLIGINREYKAFRSYSLDRIKRIALSEETFNFPRKFTPQDHFRDSFGIIRDENLLPQHTVLRTTISQAPYLRNLPLHSSQKEIAVTESYVDFELYISHTYDFIQELLSKGAAVEVLKPQSLRDKIKAEIQNMQTLYHL,not soluble
16,MGSDKIHHHHHHMAKRKVPPEFVVERDDYKCIRCLACVRVCSYGANFYDENANRVYTENTKCVGCHFCEAICPTEAITVRKNDFDIRPLAHWTPEHLIGIMKQAETGGVLLTSMGNDRPYFSYFDRIVLNASQVTNPSIDPLREPMEIRTYIGRKEEKLEIEEDEDGTVKLKTEIAPQLKLEVPVMFTAMSYGSISLNAILSLARAARTVGTFFNTGEGGLPKELREFKDNMIVQVASGRFGVSADYLNAGSAVEIKIGQGAKPGIGGHLPGEKVTEPISETRMIPVGTDALSPAPHHDIYSIEDLRQLIYAIKEATRYEKPVGVKIAAVHNVAPIAAGAVRAGADYIVIDGIRGGTGAAPKITRDHVGIPIEFAVAVVDQRLREEGIRHMASIVVAGGIRNSADVIKAIALGADAVYIGTAALISLGCHLCQTCYLGKCNWGIATQDPKLTKRLNPEIGARRAANLLRAWAHEIKEILGGMGINAIESLRGNREVLRGVGLHEYELKLLGIKPAGEAW,not soluble
17,MGSDKIHHHHHHMAKVEELTPQQLSETDLKPRGRVYPSPISWRDQFLYQLVLDRFSDDNENQRELFDHTNLAKFQVKDKAGWMAAGTKFVGGTLRGIKSKLDYLQRLGVTTLWINPPWQQRSELEAYHSDRIQEFLDIDPHFGTRQDLRDLIDAAHDRRMYVILDVIYNQNADNWFHRNDVIAALARVYQYWIALSDCDGLRIDSLKHVSPEDSRKFCTAIREYAESIDKDNFLLTGEITSGSMAGAYIDIIARNFSAVLDIAQTPNELAAFAKGLVHPKQFFDLYSENNLAGEYRQIGTYHVSILDDYEMSFRTNKQRFAAYSNVPHLYEQVAHAVGVQLTMPGIPAIYYGTEQAFDGNEGYHDYSIEGRKFAEDRYIKEAMFGGAFGAFQTADCHFFDIDHPTYLRIAAIARIRNSHDKIGKALRRGHHYLRETSFFNSPFSIPGQGELVAWSQTLFDTEVLMVLNTNGLENRGAEVTVDTYMHPQDSTMTFLYKSDWSDSYLRHPPRDQTVAVQHHNDRRATVRIDLPPSGMAILA,not soluble
18,MGSDKIHHHHHHMAKVIKTKKGLALNLKGKPLPEMLAEPAQSPTYAVVPDDFEGVIPKVTARPGDKVRAGSALMHHKAYPEMKFTSPVSGEVIAVNRGAKRKVLSIEVKPDGLNEYESFPVGDPSALSAEQIKELLLSSGMWGFIKQRPYDIVATPDIAPRDIYITANFTAPLAPDFDFIVRGEERALQTAIDALAKLTTGKVYVGLKPGSSLGLHNAEIVEVHGPHPAGNVGVLINHTKPINRGETVWTLKATDLIVIGRFLLTGKADFTRMIAMTGSDAAAHGYVRIMPGCNVFASFPGRLTIKESHERVIDGNVLTGKKLCEKEPFLSARCDQITVIPEGDDVDELFGWAAPRLDQYSMSRAYFSWLQGKNKEYVLDARIKGGERAMIMSNEYDRVFPMDIYPEYLLKAIIAFDIDKMEDLGIYEVAPEDFATCEFVDTSKIELQRIVREGLDMLYKEMN,not soluble
